Results published in patent publication KR20240034671A (dated 2024).

Molecular target: T1, human PTK7-Ig3-4-His (human, UniProt Q13308 221-409, limits assumed)
T1 construct: domain: Ig3-4; Made from the hPTK7-Ig1-4-His construct by DpnI-mediated deletion mutagenesis; expressed in HEK293 cells; also called hPTK7-Ig3-4-His; STK7-lg3-4-His [sic]
T1 sequence: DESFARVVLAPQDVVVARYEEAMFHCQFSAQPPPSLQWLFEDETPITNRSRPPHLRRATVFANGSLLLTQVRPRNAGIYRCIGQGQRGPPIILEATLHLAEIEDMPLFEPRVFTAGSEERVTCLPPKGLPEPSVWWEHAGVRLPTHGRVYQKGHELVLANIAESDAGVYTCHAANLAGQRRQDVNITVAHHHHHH
Experiment: Ni-NTA pull-down of His-tagged construct incubated with mAb at 1:1 molar ratio, western blot

B1: anti-PTK7 mAb-52 (antibody, V domains shown)
VH: EVQLQQSGAELVKPGASVKLSCTASGFNIEDTYIHWVKQRPEQGLEWIGRIDPANGNDKYDPKFQGKATITADTSSNTAYLQLSSLTSEDTAVYYCARGDANYGSYWGQGTLVTVSA
VL: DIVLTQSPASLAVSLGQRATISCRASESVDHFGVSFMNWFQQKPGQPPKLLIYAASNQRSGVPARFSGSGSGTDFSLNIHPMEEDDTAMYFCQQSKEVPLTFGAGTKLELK
notes: Mouse monoclonal antibody from a hybridoma raised against purified human sPTK7, purified from ascites
  binding result: no binding
